The source of these data is publication PMC9489782.

Among the targets are IGFBP5 K128A (human) (UniProt P24593); IGFBP5 K128D (human) (UniProt P24593); FL IGFBP5 (human) (UniProt P24593).
Experiment [1] deals with PAPP-A^4C4S (C1112S, C1125S, C1130S and C1135S) (human).
For experiment [2], the target named is PAPP-A^1100-1135* (PAPP-A^1100-1135 replaced with PAPP-A2^1125-1162) (human).
The target in experiment [3] is PAPP-A triple mutant L1254A/F1257A/H1211A (human).
Experiment [4] has as its target FAM-labeled FL IGFBP5 (human) (UniProt P24593). Kind of experiment: fluorescence polarisation; direct binding: 5 nM FAM-labeled FL IGFBP5, serial dilutions of PAPP-A (E483A) (10 uM-50 nM), PBS, room temperature, read at 10 min; EC50 of the fit taken as KD.
In experiment [5] the target is chimeric PAPP-A^1100-1111* (loop 2 replaced by amino acids 1125-1136 from PAPP-A2) (human).
Experiment [6] concerns the target N-terminal Alexa Fluor 568 conjugated IGFBP5^121-143 (human). As to the kind of experiment: fluorescence polarisation; direct binding: 5 nM N-terminal Alexa Fluor 568 IGFBP5^121-143, serial dilutions of WT PAPP-A (5.65 uM to 33 nM), PBS, room temperature, read at 10 min; EC50 of the fit taken as KD. Background: Polarisation of emitted light reports the rotation of a fluorescent probe.

Experiment [7] deals with Wild type (WT) PAPP-A (auto-cleaved) (human) (UniProt Q13219). Kind of experiment: SEC; Superose 6 Increase 10/300 in 1X PBS, 0.5 mL/min; 0.2 mL of each protein at 1.4 uM; fractions on reduced SDS-PAGE.
Experiment [8] shares this target. As to the kind of experiment: SEC-MALS; Superdex200 Increase 10/300 GL in PBS, 0.5 mL/min; PAPP-A and PAPP-A (E483A) 100 uL of 1 mg/mL; PAPP-A2 100 uL of 1, 3 and 6 mg/mL. On the technique in general: Size exclusion chromatography separates by hydrodynamic size, large species first.
Experiment [9] has the same target.
The target in experiment [10] is catalytically inactive full-length (FL) PAPP-A (E483A) (human).

Sequence of PAPP-A (1267) (Q13219 23-1627): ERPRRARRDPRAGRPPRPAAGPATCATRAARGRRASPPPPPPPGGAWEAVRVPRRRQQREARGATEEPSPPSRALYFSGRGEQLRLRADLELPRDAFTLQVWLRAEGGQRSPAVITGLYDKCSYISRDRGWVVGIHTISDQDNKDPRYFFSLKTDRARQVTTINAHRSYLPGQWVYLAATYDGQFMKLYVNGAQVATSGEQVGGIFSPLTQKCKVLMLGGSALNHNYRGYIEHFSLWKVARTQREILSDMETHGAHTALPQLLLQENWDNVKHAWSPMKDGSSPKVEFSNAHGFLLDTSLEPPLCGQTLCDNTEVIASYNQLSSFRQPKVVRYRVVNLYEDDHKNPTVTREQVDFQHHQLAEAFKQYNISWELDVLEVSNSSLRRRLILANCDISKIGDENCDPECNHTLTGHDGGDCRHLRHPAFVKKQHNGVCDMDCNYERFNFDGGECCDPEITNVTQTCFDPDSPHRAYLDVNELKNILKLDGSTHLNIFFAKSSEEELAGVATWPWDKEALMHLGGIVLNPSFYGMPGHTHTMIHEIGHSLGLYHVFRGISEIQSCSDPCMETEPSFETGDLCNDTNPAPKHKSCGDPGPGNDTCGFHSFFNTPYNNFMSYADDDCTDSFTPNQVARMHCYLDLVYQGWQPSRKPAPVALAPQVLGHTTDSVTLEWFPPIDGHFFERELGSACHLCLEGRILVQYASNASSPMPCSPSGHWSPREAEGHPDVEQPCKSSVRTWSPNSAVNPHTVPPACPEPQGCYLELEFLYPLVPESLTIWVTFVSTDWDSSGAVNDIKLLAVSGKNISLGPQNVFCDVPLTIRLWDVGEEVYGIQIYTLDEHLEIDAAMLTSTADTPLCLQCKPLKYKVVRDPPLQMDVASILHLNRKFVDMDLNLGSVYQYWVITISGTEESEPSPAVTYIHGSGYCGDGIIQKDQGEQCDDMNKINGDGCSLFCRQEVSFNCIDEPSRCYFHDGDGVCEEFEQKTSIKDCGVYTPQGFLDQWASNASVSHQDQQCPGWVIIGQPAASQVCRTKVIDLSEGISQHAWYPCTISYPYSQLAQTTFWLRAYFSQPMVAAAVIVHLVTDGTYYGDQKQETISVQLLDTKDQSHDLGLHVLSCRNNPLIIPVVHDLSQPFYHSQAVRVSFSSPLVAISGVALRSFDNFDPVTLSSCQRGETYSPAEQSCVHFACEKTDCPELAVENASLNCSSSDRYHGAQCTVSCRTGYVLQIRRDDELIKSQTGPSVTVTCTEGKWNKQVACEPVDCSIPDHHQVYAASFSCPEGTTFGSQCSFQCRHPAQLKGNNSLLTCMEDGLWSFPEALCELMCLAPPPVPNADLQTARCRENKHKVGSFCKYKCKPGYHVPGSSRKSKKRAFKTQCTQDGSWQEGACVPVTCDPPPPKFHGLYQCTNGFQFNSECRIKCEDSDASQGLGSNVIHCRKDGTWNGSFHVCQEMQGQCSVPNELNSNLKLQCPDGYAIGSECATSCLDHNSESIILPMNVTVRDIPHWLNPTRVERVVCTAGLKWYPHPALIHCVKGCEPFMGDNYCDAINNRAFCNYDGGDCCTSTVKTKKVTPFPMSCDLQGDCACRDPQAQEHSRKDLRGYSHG

The substance “PAPP-A^4C4S (C1112S, C1125S, C1130S and C1135S) (enzyme)” came in with an EC50 of IGFBP4 cleavage (400 nM IGFBP4/700 nM IGF1) by the variant, gel-based assay, 37 °C, 4 h in [1] of 402 pM.
In experiment [2], “PAPP-A^1100-1135* (PAPP-A^1100-1135 replaced with PAPP-A2^1125-1162) (enzyme)” came in with an EC50 of IGFBP4 cleavage (400 nM IGFBP4/700 nM IGF1) by the variant, gel-based assay, 37 °C, 4 h of 954 pM.
PAPP-A (1267) (domain or fragment) gave an EC50 of IGFBP4 cleavage (400 nM IGFBP4/700 nM IGF1) by PAPP-A (1267), gel-based assay, 37 °C, 4 h with PAPP-A (1267) (human) of 597 pM.
For the substance “PAPP-A triple mutant L1254A/F1257A/H1211A (enzyme)”, in [3], the EC50 of IGFBP4 cleavage (400 nM IGFBP4/700 nM IGF1) by the triple mutant, gel-based assay, 37 °C, 4 h is 2600 pM.
Broadly, the Kd is a measure of binding affinity in units of concentration. Substance “catalytically inactive full-length (FL) PAPP-A (E483A) (enzyme)” returned a Kd in experiment [4] of 250000 pM.
For the substance “chimeric PAPP-A^1100-1111* (loop 2 replaced by amino acids 1125-1136 from PAPP-A2) (enzyme)”, the EC50 of IGFBP4 cleavage (400 nM IGFBP4/700 nM IGF1) by the variant, gel-based assay, 37 °C, 4 h in experiment [5] amounted to 519 pM.
A word on the stoichiometry N: it is a count of units in the complex or per binding partner. In the experiment with IGFBP5 K128A (human), “Wild type (WT) PAPP-A (auto-cleaved) (from UniProt Q13219 82-1627) (enzyme)” gave an EC50 (PAPP-A concentration) of proteolysis of 500 nM IGFBP5 K128A by WT PAPP-A, gel-based assay, 37 °C, 4 h of 1300 pM. Also, the EC50 (PAPP-A concentration) of proteolysis of 500 nM IGFBP5 K128D by WT PAPP-A, gel-based assay, 37 °C, 4 h with IGFBP5 K128D (human) amounted to 15300 pM. In the experiment with FL IGFBP5 (human), this substance registered an EC50 (PAPP-A concentration) of proteolysis of 500 nM WT IGFBP5 by WT PAPP-A, gel-based assay, 37 °C, 4 h of 53 pM. The Kd in experiment [6] is 380000 pM. For the same substance, the stoichiometry N in [7] and in [8] was 2 each time. The EC50 of IGFBP4 cleavage (400 nM IGFBP4/700 nM IGF1) by WT PAPP-A, gel-based assay, 37 °C, 4 h in [9] is 26 pM.
Substance “C-terminally truncated PAPP-A (1132) (domain or fragment)” came in with an EC50 of IGFBP4 cleavage (400 nM IGFBP4/700 nM IGF1) by the co-expressed PAPP-A (FL, E483A)/PAPP-A (1132) heterodimer, gel-based assay, 37 °C, 4 h in [10] of 466 pM.
